Data set [1] deals with HeLa Kyoto. Description: solubility in G1/S (NP-40 vs SDS abundance) (log2 ratio); higher = more soluble. As to conditions: cell cycle stage: G1/S.
For data set [2], the system named is HeLa Kyoto. Description: solubility change mitosis vs G1/S (difference of NP-40 vs SDS log2 ratios) (log2 ratio difference); higher = more soluble in mitosis.
Data set [3] relates to HeLa Kyoto. Description: thermal stability score vs G1/S (z-score of summed log2 fold changes over temperatures); higher = more thermally stable than in G1/S.
Data set [4] concerns HeLa Kyoto. Briefly: melting temperature (median over replicates), in situ; higher = more thermally stable.
Where [5] appears, read: cell cycle stage: early G1 (4.5 h after nocodazole release).
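Wherever melting temperature (median over replicates), in situ is given: HeLa Kyoto cells synchronized by double thymidine or nocodazole block, proteins quantified by TMT10plex mass spectrometry, three independent biological replicates.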
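Wherever solubility change mitosis vs G1/S (difference of NP-40 vs SDS log2 ratios) is given: synchronized HeLa Kyoto cells (double thymidine block for G1/S, nocodazole release for mitosis), protein amounts in NP-40 versus SDS lysates quantified by mass spectrometry, three biological replicates.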
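Wherever solubility in G1/S (NP-40 vs SDS abundance) is given: HeLa Kyoto cells arrested at G1/S by double thymidine block, proteins quantified by TMT10plex mass spectrometry in mild NP-40 versus SDS extracts, three biological replicates.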
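Wherever thermal stability score vs G1/S (z-score of summed log2 fold changes over temperatures) is given: synchronized HeLa Kyoto cells, proteins quantified by TMT10plex mass spectrometry, three biological replicates, mitosis taken 0.5 h after nocodazole release, G1/S directly after double thymidine block.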

With “MKFRAKIVDGACLNHFTRISNMIAKLAKTCTLRISPDKLNFILCDKLANGGVSMWCELEQENFFNEFQMEGVSAENNEIYLELTSENLSRALKTAQNARALKIKLTNKHFPCLTVSVELLSMSSSSRIVTHDIPIKVIPRKLWKDLQEPVVPDPDVSIYLPVLKTMKSVVEKMKNISNHLVIEANLDGELNLKIETELVCVTTHFKDLGNPPLASESTHEDRNVEHMAEVHIDIRKLLQFLAGQQVNPTKALCNIVNNKMVHFDLLHEDVSLQYFIPALS [HUS1]”, in data set [1], the “solubility in G1/S (log2)” value was determined as 0.0659. The “solubility change mitosis (log2)” value in data set [2] was -0.083. Also, the thermal stability score in data set [3] (setting [5]) amounted to 1.48; in data set [3] (cell cycle stage: mitosis), 1.19. Besides, the values for the melting temperature in data set [4] (cell cycle stage: G1/S) and in data set [4] (cell cycle stage: mitosis) were 51.8 °C and 51.9 °C, respectively.
In the case of “MKGKEEKEGGARLGAGGGSPEKSPSAQELKEQGNRLFVGRKYPEAAACYGRAITRNPLVAVYYTNRALCYLKMQQHEQALADCRRALELDGQSVKAHFFLGQCQLEMESYDEAIANLQRAYSLAKEQRLNFGDDIPSALRIAKKKRWNSIEERRIHQESELHSYLSRLIAAERERELEECQRNHEGDEDDSHVRAQQACIEAKHDKYMADMDELFSQVDEKRKKRDIPDYLCGKISFELMREPCITPSGITYDRKDIEEHLQRVGHFDPVTRSPLTQEQLIPNLAMKEVIDAFISENGWVEDY [STUB1]”, in data set [1], the “solubility in G1/S (log2)” value amounted to 0.397. For the same sequence, the “solubility change mitosis (log2)” value in data set [2] was found to be 0.0745. Further, the thermal stability score is 1.3 in data set [3] (setting [5]) and 2.29 in data set [3] (cell cycle stage: mitosis). Moreover, the melting temperature in data set [4] (cell cycle stage: G1/S) worked out at 46.7 °C; in data set [4] (cell cycle stage: mitosis), 49.5 °C.
For “MKIKDAKKPSFPWFGMDIGGTLVKLSYFEPIDITAEEEQEEVESLKSIRKYLTSNVAYGSTGIRDVHLELKDLTLFGRRGNLHFIRFPTQDLPTFIQMGRDKNFSTLQTVLCATGGGAYKFEKDFRTIGNLHLHKLDELDCLVKGLLYIDSVSFNGQAECYYFANASEPERCQKMPFNLDDPYPLLVVNIGSGVSILAVHSKDNYKRVTGTSLGGGTFLGLCSLLTGCESFEEALEMASKGDSTQADKLVRDIYGGDYERFGLPGWAVASSFGNMIYKEKRESVSKEDLARATLVTITNNIGSVARMCAVNEKINRVVFVGNFLRVNTLSMKLLAYALDYWSKGQLKALFLEHEGYFGAVGALLGLPNFS [PANK3]”, the “solubility in G1/S (log2)” value in data set [1] was -0.124. The “solubility change mitosis (log2)” value in data set [2] was -0.137. Moreover, the figures for the thermal stability score in data set [3] (setting [5]) and in data set [3] (cell cycle stage: mitosis) were -1.56 and -0.972, respectively. In addition, the melting temperature in data set [4] (cell cycle stage: G1/S) was 53.4 °C; in data set [4] (cell cycle stage: mitosis), 53.9 °C.
Regarding “MKKFFDSRREQGGSGLGSGSSGGGGSTSGLGSGYIGRVFGIGRQQVTVDEVLAEGGFAIVFLVRTSNGMKCALKRMFVNNEHDLQVCKREIQIMRDLSGHKNIVGYIDSSINNVSSGDVWEVLILMDFCRGGQVVNLMNQRLQTGFTENEVLQIFCDTCEAVARLHQCKTPIIHRDLKVENILLHDRGHYVLCDFGSATNKFQNPQTEGVNAVEDEIKKYTTLSYRAPEMVNLYSGKIITTKADIWALGCLLYKLCYFTLPFGESQVAICDGNFTIPDNSRYSQDMHCLIRYMLEPDPDKRPDIYQVSYFSFKLLKKECPIPNVQNSPIPAKLPEPVKASEAAAKKTQPKARLTDPIPTTETSIAPRQRPKAGQTQPNPGILPIQPALTPRKRATVQPPPQAAGSSNQPGLLASVPQPKPQAPPSQPLPQTQAKQPQAPPTPQQTPSTQAQGLPAQAQATPQHQQQLFLKQQQQQQQPPPAQQQPAGTFYQQQQAQTQQFQAVHPATQKPAIAQFPVVSQGGSQQQLMQNFYQQQQQQQQQQQQQQLATALHQQQLMTQQAALQQKPTMAAGQQPQPQPAAAPQPAPAQEPAIQAPVRQQPKVQTTPPPAVQGQKVGSLTPPSSPKTQRAGHRRILSDVTHSAVFGVPASKSTQLLQAAAAEASLNKSKSATTTPSGSPRTSQQNVYNPSEGSTWNPFDDDNFSKLTAEELLNKDFAKLGEGKHPEKLGGSAESLIPGFQSTQGDAFATTSFSAGTAEKRKGGQTVDSGLPLLSVSDPFIPLQVPDAPEKLIEGLKSPDTSLLLPDLLPMTDPFGSTSDAVIEKADVAVESLIPGLEPPVPQRLPSQTESVTSNRTDSLTGEDSLLDCSLLSNPTTDLLEEFAPTAISAPVHKAAEDSNLISGFDVPEGSDKVAEDEFDPIPVLITKNPQGGHSRNSSGSSESSLPNLARSLLLVDQLIDL [AAK1]”, the “solubility in G1/S (log2)” value in data set [1] came to 0.192. Moreover, the “solubility change mitosis (log2)” value in data set [2] was -0.0894. The thermal stability score in data set [3] (setting [5]) amounted to 0.691; in data set [3] (cell cycle stage: mitosis), 0.746. For the same sequence, the melting temperature was 50.9 °C in data set [4] (cell cycle stage: G1/S) and 51.8 °C in data set [4] (cell cycle stage: mitosis).

For the origin of these results see the supplement of paper PMC5998384.
